From patent publication US20230110287A1 (SCOUT BIO, published 2023) come the findings set out here.

Assay [1] concerns the target T1, mouse (murine) NGF (mouse, UniProt P01139 122-241, limits assumed).
T1 construct: also called muNGF; beta muNGF
Kind of assay: ELISA on murine NGF, Abs 450. On the technique in general: ELISA stands for enzyme-linked immunosorbent assay.

Assay [2] concerns the target NGF (added at 10 ng/mL to TF-1 cell cultures). Description: cell-based or functional assay.
Assay [3] concerns the target T1, mouse (murine) NGF. Kind of assay: ELISA on plate-coated murine NGF (0.1 ug/ml), detection with goat anti-feline IgG-HRP, Abs 450. On the procedure: ELISA plates were coated with 0.1 μg/ml mouse (murine) NGF (muNGF) and blocked with PBS/0.05% Tween 20/1% BSA. muNGF-coated wells were then incubated for 1 hour at room temperature with antibody preparations, diluted in PBS/0.05% Tween 20/1% BSA (100 μl/well). Antibody concentrations ranging from 100 ng/ml to 1.56 ng/ml were used to establish a binding curve. After washing, the plates were incubated with a 1/5,000 dilution of goat anti-feline IgG-HRP in PBS/0.05% Tween 20/1% BSA. Plates were washed with PBS/0.05% Tween 20 and developed by the addition of TMB substrate. Development was stopped by the addition of 2M H₂SO₄, absorbance read at 450 nm and background values were subtracted from the absorbance readings.

T1 sequence (P01139 122-241 limits assumed): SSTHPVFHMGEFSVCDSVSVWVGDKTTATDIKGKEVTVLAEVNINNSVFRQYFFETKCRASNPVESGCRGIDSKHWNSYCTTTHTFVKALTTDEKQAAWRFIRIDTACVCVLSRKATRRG
Sequence of NGF (added at 10 ng/mL to TF-1 cell cultures) (P01138 122-241): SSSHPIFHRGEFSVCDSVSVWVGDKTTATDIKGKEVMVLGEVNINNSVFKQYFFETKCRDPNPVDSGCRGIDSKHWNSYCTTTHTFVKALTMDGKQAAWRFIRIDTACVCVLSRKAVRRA

B1: caninized anti-NGF monoclonal antibody SCB01 (antibody, V domains shown)
VH: EVTLQESGPGLVKPSQTLSLTCVVSGLSLTNNNVNWVRQRPGRGLEWMGGVWAGGATDYNSALKSRISITRDTAKNQVSLQLSSMTTEDTAVYYCARDGGYSSSTLYAMDAWGQGTLVTVSS
VL: EIVMTQSPASLSLSQEEKVTITCRASEDIYNALAWYQQKPGQAPKLLIYNTDTLHTGVPSRFSGSGSGTDYSFTISSLEPEDVAVYFCQHYFHYPRTFGAGTKVELK
As for B1, in the assay with mouse (murine) NGF [1], the binding result was “binds”.

B2: felinized anti-NGF monoclonal antibody Fe1 (antibody, V domains shown)
VH: QVQLMESGADLVQPSESLRLTCVASGLSLTNNNVNWVRQAPGKGLEWMGGVWAGGATDYNSALKSRLTITRDTSKNTVFLQMHSLQSEDTATYYCARDGGYSSSTLYAMDAWGQGTTVTVSA
VL: DIEMTQSPLSLSATPGETVSISCRASEDIYNALAWYLQKPGRSPRLLIYNTDTLHTGVPDRFSGSGSGTDFTLKISRVQTEDVGVYFCQHYFHYPRTFGQGTKLELKR
notes: Expressed in CHO cells
In the case of B2, the “IC50 (read off the curve), NGF-driven TF-1 cell proliferation” value in assay [2] was ~0.05 µg/mL. In addition, the binding result with mouse (murine) NGF [3] is “binds”.
